# Experimental data published in patent US20200368341A1.
# Molecular target: P. falciparum circumsporozoite protein (CSP) (Plasmodium falciparum) (UniProt P19597)
# Assay: cell-based or functional assay
# Chain of UniProt P19597 (P19597 19-374): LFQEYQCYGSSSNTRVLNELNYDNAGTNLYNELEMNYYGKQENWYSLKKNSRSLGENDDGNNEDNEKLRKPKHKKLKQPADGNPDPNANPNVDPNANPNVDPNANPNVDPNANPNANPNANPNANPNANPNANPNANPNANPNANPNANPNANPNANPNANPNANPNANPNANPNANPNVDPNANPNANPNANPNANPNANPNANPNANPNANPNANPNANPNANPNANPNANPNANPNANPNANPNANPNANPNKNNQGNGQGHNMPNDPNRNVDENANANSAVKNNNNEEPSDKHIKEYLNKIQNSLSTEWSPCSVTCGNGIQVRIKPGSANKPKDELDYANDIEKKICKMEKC
substance,measurement,value
monoclonal antibody 2A10,in vitro liver invasion assay: parasite burden in liver cells against the pre-immune control serum,> 2 log
